# Results published in IntAct's records for PubMed 25910212.
# B1: Cullin-4B (Homo sapiens), Q13620 (parent)
# chain: MMSQSSGSGDGNDDEATTSKDGGFSSPSPSAAAAAQEVRSATDGNTSTTPPTSAKKRKLNSSSSSSSNSSNEREDFDSTSSSSSTPPLQPRDSASPSTSSFCLGVSVAASSHVPIQKKLRFEDTLEFVGFDAKMAEESSSSSSSSSPTAATSQQQQLKNKSILISSVASVHHANGLAKSSTTVSSFANSKPGSAKKLVIKNFKDKPKLPENYTDETWQKLKEAVEAIQNSTSIKYNLEELYQAVENLCSYKISANLYKQLRQICEDHIKAQIHQFREDSLDSVLFLKKIDRCWQNHCRQMIMIRSIFLFLDRTYVLQNSMLPSIWDMGLELFRAHIISDQKVQNKTIDGILLLIERERNGEAIDRSLLRSLLSMLSDLQIYQDSFEQRFLEETNRLYAAEGQKLMQEREVPEYLHHVNKRLEEEADRLITYLDQTTQKSLIATVEKQLLGEHLTAILQKGLNNLLDENRIQDLSLLYQLFSRVRGGVQVLLQQWIEYIKAFGSTIVINPEKDKTMVQELLDFKDKVDHIIDICFLKNEKFINAMKEAFETFINKRPNKPAELIAKYVDSKLRAGNKEATDEELEKMLDKIMIIFRFIYGKDVFEAFYKKDLAKRLLVGKSASVDAEKSMLSKLKHECGAAFTSKLEGMFKDMELSKDIMIQFKQYMQNQNVPGNIELTVNILTMGYWPTYVPMEVHLPPEMVKLQEIFKTFYLGKHSGRKLQWQSTLGHCVLKAEFKEGKKELQVSLFQTLVLLMFNEGEEFSLEEIKQATGIEDGELRRTLQSLACGKARVLAKNPKGKDIEDGDKFICNDDFKHKLFRIKINQIQMKETVEEQASTTERVFQDRQYQIDAAIVRIMKMRKTLSHNLLVSEVYNQLKFPVKPADLKKRIESLIDRDYMERDKENPNQYNYIA
# partner: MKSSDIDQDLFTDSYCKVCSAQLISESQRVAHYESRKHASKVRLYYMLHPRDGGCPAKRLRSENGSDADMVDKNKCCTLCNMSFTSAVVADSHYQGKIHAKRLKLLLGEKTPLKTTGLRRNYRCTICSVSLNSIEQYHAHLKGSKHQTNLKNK
# B2: DNA ligase 4 (Homo sapiens), P49917 (parent)
# chain: MAASQTSQTVASHVPFADLCSTLERIQKSKGRAEKIRHFREFLDSWRKFHDALHKNHKDVTDSFYPAMRLILPQLERERMAYGIKETMLAKLYIELLNLPRDGKDALKLLNYRTPTGTHGDAGDFAMIAYFVLKPRCLQKGSLTIQQVNDLLDSIASNNSAKRKDLIKKSLLQLITQSSALEQKWLIRMIIKDLKLGVSQQTIFSVFHNDAAELHNVTTDLEKVCRQLHDPSVGLSDISITLFSAFKPMLAAIADIEHIEKDMKHQSFYIETKLDGERMQMHKDGDVYKYFSRNGYNYTDQFGASPTEGSLTPFIHNAFKADIQICILDGEMMAYNPNTQTFMQKGTKFDIKRMVEDSDLQTCYCVFDVLMVNNKKLGHETLRKRYEILSSIFTPIPGRIEIVQKTQAHTKNEVIDALNEAIDKREEGIMVKQPLSIYKPDKRGEGWLKIKPEYVSGLMDELDILIVGGYWGKGSRGGMMSHFLCAVAEKPPPGEKPSVFHTLSRVGSGCTMKELYDLGLKLAKYWKPFHRKAPPSSILCGTEKPEVYIEPCNSVIVQIKAAEIVPSDMYKTGCTLRFPRIEKIRDDKEWHECMTLDDLEQLRGKASGKLASKHLYIGGDDEPQEKKRKAAPKMKKVIGIIEHLKAPNLTNVNKISNIFEDVEFCVMSGTDSQPKPDLENRIAEFGGYIVQNPGPDTYCVIAGSENIRVKNIILSNKHDVVKPAWLLECFKTKSFVPWQPRFMIHMCPSTKEHFAREYDCYGDSYFIDTDLNQLKEVFSGIKNSNEQTPEEMASLIADLEYRYSWDCSPLSMFRRHTVYLDSYAVINDLSTKNEGTRLAIKALELRFHGAKVVSCLAEGVSHVIIGEDHSRVADFKAFRRTFKRKFKILKESWVTDSIDKCELQEENQYLI
# B3: Beta-crystallin A4 (Homo sapiens), P53673 (parent)
# chain: MTLQCTKSAGPWKMVVWDEDGFQGRRHEFTAECPSVLELGFETVRSLKVLSGAWVGFEHAGFQGQQYILERGEYPSWDAWGGNTAYPAERLTSFRPAACANHRDSRLTIFEQENFLGKKGELSDDYPSLQAMGWEGNEVGSFHVHSGAWVCSQFPGYRGFQYVLECDHHSGDYKHFREWGSHAPTFQVQSIRRIQQ
# partner: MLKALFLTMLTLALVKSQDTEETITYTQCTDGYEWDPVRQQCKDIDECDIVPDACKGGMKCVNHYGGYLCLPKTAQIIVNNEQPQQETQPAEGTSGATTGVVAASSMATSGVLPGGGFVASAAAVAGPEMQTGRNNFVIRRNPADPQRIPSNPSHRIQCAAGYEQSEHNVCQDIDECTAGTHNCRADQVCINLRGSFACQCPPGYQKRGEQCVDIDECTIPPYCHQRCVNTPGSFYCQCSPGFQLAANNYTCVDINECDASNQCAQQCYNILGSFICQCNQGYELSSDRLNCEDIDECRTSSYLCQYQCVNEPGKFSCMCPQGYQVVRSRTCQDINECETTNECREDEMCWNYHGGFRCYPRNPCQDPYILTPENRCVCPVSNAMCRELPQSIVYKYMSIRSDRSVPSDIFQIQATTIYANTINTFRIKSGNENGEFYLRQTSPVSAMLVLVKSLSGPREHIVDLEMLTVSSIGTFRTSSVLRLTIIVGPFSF
# B4: U4/U6 small nuclear ribonucleoprotein Prp3 (Homo sapiens), O43395 (parent)
# chain: MALSKRELDELKPWIEKTVKRVLGFSEPTVVTAALNCVGKGMDKKKAADHLKPFLDDSTLRFVDKLFEAVEEGRSSRHSKSSSDRSRKRELKEVFGDDSEISKESSGVKKRRIPRFEEVEEEPEVIPGPPSESPGMLTKLQIKQMMEAATRQIEERKKQLSFISPPTPQPKTPSSSQPERLPIGNTIQPSQAATFMNDAIEKARKAAELQARIQAQLALKPGLIGNANMVGLANLHAMGIAPPKVELKDQTKPTPLILDEQGRTVDATGKEIELTHRMPTLKANIRAVKREQFKQQLKEKPSEDMESNTFFDPRVSIAPSQRQRRTFKFHDKGKFEKIAQRLRTKAQLEKLQAEISQAARKTGIHTSTRLALIAPKKELKEGDIPEIEWWDSYIIPNGFDLTEENPKREDYFGITNLVEHPAQLNPPVDNDTPVTLGVYLTKKEQKKLRRQTRREAQKELQEKVRLGLMPPPEPKVRISNLMRVLGTEAVQDPTKVEAHVRAQMAKRQKAHEEANAARKLTAEQRKVKKIKKLKEDISQGVHISVYRVRNLSNPAKKFKIEANAGQLYLTGVVVLHKDVNVVVVEGGPKAQKKFKRLMLHRIKWDEQTSNTKGDDDEESDEEAVKKTNKCVLVWEGTAKDRSFGEMKFKQCPTENMAREHFKKHGAEHYWDLALSESVLESTD
# partner: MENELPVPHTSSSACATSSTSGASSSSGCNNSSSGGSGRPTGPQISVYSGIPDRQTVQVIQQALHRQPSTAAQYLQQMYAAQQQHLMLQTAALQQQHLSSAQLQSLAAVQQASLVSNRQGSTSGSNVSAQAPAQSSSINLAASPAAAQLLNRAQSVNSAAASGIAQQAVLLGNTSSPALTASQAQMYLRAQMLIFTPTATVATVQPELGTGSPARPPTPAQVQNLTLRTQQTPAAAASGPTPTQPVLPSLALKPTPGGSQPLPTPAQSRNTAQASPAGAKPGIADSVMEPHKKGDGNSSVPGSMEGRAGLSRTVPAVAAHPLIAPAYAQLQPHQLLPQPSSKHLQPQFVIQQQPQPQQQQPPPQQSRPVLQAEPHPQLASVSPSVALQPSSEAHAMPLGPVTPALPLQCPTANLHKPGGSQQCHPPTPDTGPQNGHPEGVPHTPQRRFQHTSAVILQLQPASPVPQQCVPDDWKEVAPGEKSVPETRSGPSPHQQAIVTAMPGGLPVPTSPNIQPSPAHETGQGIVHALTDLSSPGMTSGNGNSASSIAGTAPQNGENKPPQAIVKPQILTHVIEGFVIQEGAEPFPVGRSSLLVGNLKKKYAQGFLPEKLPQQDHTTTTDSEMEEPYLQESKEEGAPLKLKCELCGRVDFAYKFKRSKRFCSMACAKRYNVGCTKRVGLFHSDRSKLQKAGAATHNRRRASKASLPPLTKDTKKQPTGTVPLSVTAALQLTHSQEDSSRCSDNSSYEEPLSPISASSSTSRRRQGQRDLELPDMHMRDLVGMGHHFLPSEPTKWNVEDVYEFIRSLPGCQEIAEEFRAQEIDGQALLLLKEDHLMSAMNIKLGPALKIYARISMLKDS
# Variants of: B1
# Settings: with ZMAT4, Q9H898-2
row,Variant,effect of a mutation on the interaction
1,T213I,with no effect

# Variants of: B2
# Settings: with xrcc4_human XRCC4, Q13426
# Sequence of xrcc4_human XRCC4, Q13426 (Q13426 whole entry): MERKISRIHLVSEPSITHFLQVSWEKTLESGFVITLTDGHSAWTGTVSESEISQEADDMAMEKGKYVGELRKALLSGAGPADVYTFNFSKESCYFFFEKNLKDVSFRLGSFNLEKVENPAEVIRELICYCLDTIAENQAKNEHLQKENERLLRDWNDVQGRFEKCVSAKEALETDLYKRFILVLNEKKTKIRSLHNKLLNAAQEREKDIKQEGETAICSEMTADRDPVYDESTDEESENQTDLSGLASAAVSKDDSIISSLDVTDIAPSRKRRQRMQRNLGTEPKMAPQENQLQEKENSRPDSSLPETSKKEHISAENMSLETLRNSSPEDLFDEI
row,Variant,effect of a mutation on the interaction
1,T9I,with no effect
2,A857T,with no effect
3,A3V,disrupting interaction strength

# Variants of: B3
# Settings: with fbln3_human EFEMP1, Q12805
row,Variant,effect of a mutation on the interaction
1,F94S,disrupting interaction strength
2,V36M,disrupting interaction strength
3,L69P,disrupting interaction strength

# Variants of: B4
# Settings: with PHC2, Q8IXK0-5
row,Variant,effect of a mutation on the interaction
1,A489D,disrupting interaction strength
2,T494M,disrupting interaction strength
3,P493S,disrupting interaction strength
